Data on ten molecules can be found in patent US20240025971A1 (ATRECA, published 2024).

The target in assay [1] is T1, SARS-CoV-2 S2 protein (SARS-CoV-2, UniProt P0DTC2 686-1213).
T1 construct: domain: S2 protein; also called S2 monomer
The assay is described as follows: BLI.

Assay [2] deals with SARS-CoV-2 Wuhan-1 full-length Spike protein (SARS-CoV-2, UniProt P0DTC2 14-1273). The assay is described as follows: cell-based or functional assay.
The target of assay [3] is SARS-CoV-1 spike (pseudovirus) (SARS-CoV-1, UniProt P59594 14-1255). Put plainly: cell-based or functional assay.
Assay [4] addresses T2, SARS-CoV-2 S1 protein (SARS-CoV-2, UniProt P0DTC2 16-685).
T2 construct: domain: S1 protein; also called S1 monomer
The assay is described as follows: BLI. For orientation: Biolayer interferometry detects binding as a change in optical thickness at a sensor tip.

For assay [5], the target named is SARS-CoV-2 Nucleocapsid (N) protein (SARS-CoV-2, UniProt P0DTC9 1-419). The assay is described as follows: BLI.
In assay [6] the target is T3, SARS-CoV-2 Envelope (E) protein (SARS-CoV-2, UniProt P0DTC4 1-75). The assay is described as follows: ELISA. (In an ELISA, binding on a coated surface is turned into a signal by an enzyme label.)
Assay [7] deals with T4, SARS-CoV-2 Spike (S) trimer (SARS-CoV-2, UniProt P0DTC2 14-1208).
T4 construct: also called Spike trimer
The assay is described as follows: ELISA, S trimer coated, 1:50 dilution.

The target of assay [8] is SARS-CoV-2 Spike (S) trimer (SARS-CoV-2, UniProt P0DTC2 14-1208). The assay is described as follows: ELISA, S trimer coated, 1:50 dilution.
The target in assay [9] is T5, SARS-CoV-2 Receptor Binding Domain (RBD) (SARS-CoV-2, UniProt P0DTC2 319-541).
T5 construct: also called RBD protein
The assay is described as follows: BLI.

For assay [10], the target named is T4, SARS-CoV-2 Spike (S) trimer. Put plainly: ELISA.
Assay [11] concerns the target T3, SARS-CoV-2 Envelope (E) protein. Put plainly: ELISA, Envelope protein.

Changes are numbered by the printed parent chain.

B1: AB-010020 (antibody, V domains shown)
VH: QMQLVQSGPEVKKPGTSVKVSCKASGFTFTSSAVQWVRQARGQRLEWIGWIVVGSGNTNYAQKFQERVTITRDMSTSTAYMELSSLRSEDTAVYYCAAPACSSTSCYDGFDIWGQGTMVTVSS
VL: not shown
notes: human IgG1
With B1, the binding result in assay [1] is given as “no binding (tested: 300 nM)”. The “Pseudovirus Neutralization” value in assay [2] is 0.004 µg/mL; in assay [3], > 50 µg/mL.

B2: AB-010021 (antibody, V domains shown)
VH: B1 VH with P99V, A100Y, S103G, T104G, Y107L, G109A
VL: not shown
notes: human IgG1; also called AB-0010021
As for B2, the binding result in assay [1] is on record as “no binding (tested: 300 nM)”. Moreover, the “Pseudovirus Neutralization” value in assay [2] is 1.56 µg/mL; in assay [3], > 50 µg/mL.

B3: AB-009627 (antibody, V domains shown)
VH: QVQLQQWGAGLLKPSETLSLTCAVYGGSFSGYYWSWIRQPPGKGLEWIGEINHSGSTNYNPSLKSRVTISVDTSKNQFSLKLSSVTAADTAVFYCARGGYSSSWYGEKYWFDPWGQGTLVTVSS
VL: QSALTQPRSVSGSPGQSVTISCTGTSSDVGGYNYVSWYQQHPGKAPKLMIYDVSKRPSGVPDRFSGSKSGNTASLTISGLQAEDEADYYCCSYAGSPYVFGTGTKVTVL
notes: human IgG1
Take B3: the binding result in [4] was “no binding (tested: 300 nM)”; in assay [5], “no binding (tested: 300 nM)”; in [6], “no binding (tested: 2-fold over hIgG1 background)”.

B4: AB-009271 (antibody, V domains shown)
VH: EVQLVESGGGLIQPGGSLRLSCAASGFIVSSNYMSWVRQAPGKGLEWVSVIYSGGSTYYADSVKGRFTISRDNSKNTLYLQMNSLRAEDTAVYYCARDYGDFYFDYWGQGTLVTVSS
VL: EIVMTQSPATLSVSPGERATLSCRASQSVSSNLAWYQQKPGQAPRLLIYGASTRATGIPARFSGSGSGTEFTLTISSLQSEDFAVYYCQQYYNWPRTFGQGTKVEIK
notes: human IgG1
For the molecule B4, the “Optical Density (OD; 450 nm)” value in assay [7] came to 2.94 OD450. In addition, the binding result in assay [1] is on record as “no binding (tested: 300 nM)”; in [5], “no binding (tested: 300 nM)”; in assay [6] it was “no binding (tested: 2-fold over hIgG1 background)”. The figures for the “Pseudovirus Neutralization” value in assay [2] and in [3] were 0.058 µg/mL and > 50 µg/mL, respectively.

B5: AB-009613 (antibody, V domains shown)
VH: B4 VH with I28T
VL: not shown
notes: human IgG1
As to B5, the “Optical Density (OD; 450 nm)” value in assay [7] turned out to be 2.47 OD450. For the same molecule, the binding result in [1] is “no binding (tested: 300 nM)”; in assay [5], “no binding (tested: 300 nM)”; in assay [6], “no binding (tested: 2-fold over hIgG1 background)”. Also, the “Pseudovirus Neutralization” value is 1.53 µg/mL in [2] and > 50 µg/mL in assay [3].

B6: AB-009610 (antibody, V domains shown)
VH: QVQLVQSGAEVKKPGSSVKVSCKASGGTFSNYAISWVRQAPGQGLEWMGRIIPILGIANYAQKFQGRVTITADKSTSTAYMELSSLRSEDTAVYYCATTPYYYDSSGYYLDYWGQGTLVTVSS
VL: not shown
notes: human IgG1
As to B6, in assay [7], the “Optical Density (OD; 450 nm)” value is 2.02 OD450. Further, the binding result in assay [1] is on record as “no binding (tested: 300 nM)”; in assay [5], “no binding (tested: 300 nM)”; in assay [6] it was “no binding (tested: 2-fold over hIgG1 background)”. Moreover, the “Pseudovirus Neutralization” value was 6.77 µg/mL in assay [2] and > 50 µg/mL in [3].

B7: AB-009634 (antibody, V domains shown)
VH: QVTLKESGPALVKPTQTLTLTCTFSGFSLSTSGMRVSWIRQPPGKALEWLARIDWDDDKFYSTSLKTRLTISKDTSKNQVVLTMTNMDPVDTATYYCARYYYYGMDVWGQGTTVTVSS
VL: not shown
Turning to B7, in assay [8], the “Optical Density (OD; 450 nm)” value is 2.46 OD450.

B8: AB-009190 (antibody, V domains shown)
VH: QVQLVESGGGVVQPGRSLRLSCAASGFTFSSYAMHWVRQAPGKGLEWVAVISYDGSNKYYADSVKGRFTISRDNSKNTLYLQMNSLRAEDTAVYYCARLNGDAYYYYGMDVWGQGTTVTVSS
VL: not shown
notes: human IgG1
B8: the binding result in assay [1] is on record as “no binding (tested: 300 nM)”; in assay [4] it was “no binding (tested: 300 nM)”; in assay [9], “no binding (tested: 300 nM)”; in assay [10], “no binding (tested: 2-fold over hIgG1 background)”. In assay [11], the “Optical Density (OD; 450 nm)” value was 0.469 OD450.

B9: AB-009213 (antibody, V domains shown)
VH: EVQLVESGGGLVKPGGSLRLSCAASGFTFSSYSMNWVRQAPGKGLEWVSSISSSSSYIYYADSVKGRFTISRDNAKNSLYLQMNSLRAEDTAVYYCARDKLREDGDYDDAFDIWGQGTMVTVSS
VL: not shown
notes: human IgG1
Take B9: the binding result was “no binding (tested: 300 nM)” in assay [1], “no binding (tested: 300 nM)” in assay [4], “no binding (tested: 300 nM)” in assay [9] and “no binding (tested: 2-fold over hIgG1 background)” in assay [10].

B10: AB-009666 (antibody, V domains shown)
VH: EVQLVESGGGLVQPGGSLRLSCAASGFTFSSYDMHWVRQATGKGLEWVSTIGTAGDTYYPGSVKGRFTISRENAKNSLYLQMNSLRAEDTAVYYCARVNYDSSGYPTYWYFDLWGRGTLVTVSS
VL: DIQMTQSPSSLSASVGDRVTITCRASQSISRYLNWYQQKPGKAPKLLIYAASSLQSGVPSRFSGSGSGTDFTLTISSLQPEDFATYNCQQSYSSPPWTFGQGTKVEIK
notes: human IgG1
B10: the “Optical Density (OD; 450 nm)” value in assay [7] was 2.76 OD450. For the same molecule, the results for the binding result in assay [1], in assay [5] and in [6] were “no binding (tested: 300 nM)”, “no binding (tested: 300 nM)” and “no binding (tested: 2-fold over hIgG1 background)”, respectively.
